Measured values taken from patent US20230036060A1, “DUAL-CONTROLLED DRUG AND PHOTOACTIVATABLE SYSTEM FOR SPATIOTEMPORAL CONTROL OF CELL THERAPY” (THE REGENTS OF THE UNIVERSITY OF CALIFORNIA, priority 2019, published 2023).

Experiments:
[1] = test system: CD38+ Toledo Target cells; assay: Activation of myc-α-CD38 Receptor Jurkat T cells upon binding to CD38+ Toledo Target cells; format: cell-based; details: Jurkat T cells stably expressing the receptor
Text: FIG. 12D graphically illustrates representative histograms from flow cytometry showing that α-CD19-CAR-EGFP^+ Jurkat T cells both (I) bind to and (II) are activated by CD19^+ Toledo Target cells, while myc-α-CD38-Receptor^+ Jurkat T cells (III) bind to but (IV) are not activated by CD38^+ Toledo Target cells;
The TamPA-Cre system was next applied to induce CAR expression in the physiologically relevant Jurkat T cell line. […] Likewise, Jurkat T cells stably expressing myc-α-CD38 Receptor were not activated upon binding to CD38^+ Toledo Target cells, as expected (Fig. S6D).

[2] = test system: EGFP Reporter HEK293T cells; assay: Cre-loxP recombination in EGFP Reporter HEK293T cells, % EGFP+ by flow cytometry normalized to Cre groups; format: cell-based; details: Dark, Ambient, Light (5 W/m^2, 7.5 s per min, 24 h); n=5
Text: FIG. 2A is a schematic representation of the EGFP Reporter genetic construct before and after Cre-loxP recombination; the hEF1α promoter drives mCherry expression.
FIG. 3E graphically illustrates the number of recombined cells after recombination in TamPA-Cre-nH1^+ EGFP Reporter HEK293T cells subjected (Light) or not (Ambient, Dark) to Protocol B (n=3) of FIG. 3C; reporter is untransfected EGFP Reporter HEK293T cell line (n=3), blue light stimulation started and flow cytometry measurements taken 24 h and 72 h post-transfection, respectively; percentage of recombined HEK293T cells (normalized to maximal recombination)=100%*(% of EGFP^+ cells)/(mean % of EGFP^+ cells in corresponding Cre groups). […]
To compare the two photoactivatable split-Cre systems, EGFP Reporter HEK293T cells were or were not (Reporter) transiently transfected with either PA-Cre-C, PA-Cre-M, or Cre constructs (Fig. S1A-D). […] The percentage of EGFP^+ recombined cells in each cell group was determined by flow cytometry 24 h later. […]

Molecule | T cell activation upon binding to Target cells [1] | Cre-loxP recombination by one split-Cre half alone versus Reporter [2]
myc-α-CD38 Receptor: c-myc-tagged α-CD38 anchoring receptor expressed in Jurkat T cells, SEQ ID NO: 8 (protein, Synthetic exemplary nucleic acid sequence for exemplary myc-alpha-CD38-Receptor) MEFGLSWLFLVAILKGVQCSEQKLISEEDLDIQLTQSSSSFSVSLGDRVTITCKASEDIYNRLAWYQQKPGNAPRLLISGATSLETGVPSRFSGSGSGKDYTLSITSLQTEDVATYYCQQYWSTPTFGGGTKLEIKRADAAPTVSIFPPSGGGGSGGGGSGGGGSGGGGSQVQLKQSGPSLVQPSQRLSITCTVSGFSLISYGVHWVRQSPGKGLEWLGVIWRGGSTDYNAAFMSRLSITKDNSKSQVFFKMNSLQADDTAIYFCAKTLITTGYAMDYWGQGTSVTVSSAAAIEVMYPPPYLDNEKSNGTIIHVKGKHLCPSPLFPGPSKPFWVLVVVGGVLACYSLLVTVAFIIFWVRSKRS | not activated | –
NLS-pMag-CreC: nucleus-localized C-terminal split-Cre protein half, SEQ ID NO: 1 (protein, Synthetic exemplary nucleic acid sequence for NLS-pMag-CreC) PKKKRKVGGHTLYAPGGYDIMGYLRQIRNRPNPQVELGPVDTSCALILCDLKQKDTPIVYASEAFLYMTGYSNAEVLGRNCRFLQSPDGMVKPKSTRKYVDSNTINTMRKAIDRNAEVQVEVVNFKKNGQRFVNFLTMIPVRDETGEYRYSMGFQCETEGTNRKWFPAEPEDVRDYLLYLQARGLAVKTIQQHLGQLNMLHRRSGLPRPSDSNAVSLVMRRIRKENVDAGERAKQALAFERTDFDQVRSLMENSDRCQDIRNLAFLGIAYNTLLRIAEIARIRVKDISRTDGGRMLIHIGRTKTLVSTAGVEKALSLGVTKLVERWISVSGVADDPNNYLFCRVRKNGVAAPSATSQLSTRALEGIFEATHRLIYGAKDDSGQRYLAWSGHSARVGAARDMARAGVSIPEIMQAGGWTNVNIVMNYIRNLDSETGAMVRLLEDGD | – | no significant difference
